Measurements reported in patent US11396668B2, “Methods of producing nor-opioid and nal-opioid benzylisoquinoline alkaloids” (priority 2016, dated 2022).
Changes are numbered by the printed parent chain.

What was measured:
[1] = system: tyrosine hydroxylase activity (wild-type RnTyrH); assay: L-DOPA and BH4 levels with antioxidant added to growth media of engineered yeast; format: cell-based; settings: 2 mM in the media
Source text: A yeast strain containing the following mutations to central metabolism (as described in U.S. Provisional Patent Application Ser. No. 61/899,496): ARO4^FBR, ΔZWF1, and GPD-TKL1 promoter replacement and expressing four chromosomally integrated genes from R. norvegicus that generate the cosubstrate tetrahydrobiopterin (pyruvoyl tetrahydropterin synthase, PTPS; sepiapterin reductase, SepR; pterin 4a-carbinolamine dehydratase, PCD; dihydropteridine reductase, QDHPR) as well as wild-type RnTyrH from a low-copy plasmid under the control of the GPD promoter was grown in selective defined media (YNB) lacking tyrosine with 2% galactose and 2 mM ascorbic acid for 96 hours.
The production of L-DOPA was measured in the media via LC-MS/MS in MRM mode with the transition 198 m/z to 152 m/z. […] In addition, the concentration BH4 intermediates were measured with LC-MS/MS in MRM mode with the following transitions: B, 238 m/z to 178 m/z; BH2, 240 m/z to 165 m/z and BH4, 242 m/z to 166 m/z.
Accordingly, FIG. 11A illustrates addition of antioxidants to culture media that improves L-DOPA production by tyrosine hydroxylase in engineered yeast strains and (B) addition of antioxidants to culture media that increase BH4 levels, in accordance with embodiments of the invention. […] The production of L-DOPA was measured in the media via LC-MS/MS in MRM mode with the transition 198 m/z to 152 m/z. […]

[2] = system: oxycodone; assay: Oxycodone 3-O-demethylase activity of CODM in crude yeast cell lysate; format: biochemical, yeast strain W303; settings: 0.1 mM oxycodone, 10 mM 2-oxoglutarate, 30° C., 3 h, LC-MS
Procedure: FIG. 29 illustrates the functional expression of CODM, in accordance with embodiments of the invention. In particular, FIG. 29 illustrates the functional expression of CODM with oxycodone 3-O-demethylase activity in yeast. The yeast codon-optimized CODM gene was integrated into the genome of yeast strain W303 and cultured in synthetic complete media for 16 hours. The parent W303 strain was also cultured in synthetic complete media for 16 hours as a no-enzyme control. The cells were pelleted and washed with 1 mL breaking buffer (100 mM Tris-HCl pH 7.5, 10% glycerol, 14 mM 2-mercaptoethanol, lx protease inhibitor). Cells were resuspended in 200 μL breaking buffer and lysed by glass bead disruption. The crude cell lysates were incubated with 10 mM ascorbic acid, 0.5 mM iron(II) sulfate, 0.1 mM oxycodone as substrate and 10 mM 2-oxoglutarate as cosubstrate in a total volume of 100 μL. 4 mM DTT was also added as a reducing agent to keep iron in the Fe^2+ state. The reaction was incubated at 30° C. for 3 h and quenched by diluting it 1:1 in ethanol with 0.1% acetic acid. […] The mass-charge ratio (m/z 302), retention time, and mass spectrum of oxymorphone produced by the yeast strain matched that of a purchased oxymorphone standard (see FIG. 29).

[3] = system: thebaine; assay: Thebaine N-demethylase activity of BM3 variants in yeast; format: cell-based, yeast strains (CEN.PK2); settings: 100 μM thebaine, 20 hours, buffers pH 5.0-8.5
Procedure: (§1) Specifically, BM3 variants 4H9, 7A1, and 8F11 (listed in Table 6) were integrated into the genomes of individual yeast strains (CEN.PK2) and incubated in citric acid-phosphate buffer (pH 5.0, 6.0, 7.0) and Tris-HCl buffer (pH 7.5, 8.0, 8.5) with 100 μM thebaine for 20 hours. A genetic construct which was identical except for the exclusion of the BM3 open reading frame was integrated to generate a no-enzyme control strain. […] The northebaine generated by the yeast strains was quantified by liquid chromatography mass spectrometry. The mass spectrum of northebaine (m/z 298) lacked the m/z 58 product ion consistent with a demethylated nitrogen (see FIG. 27C).
as §1, with “FIG. 27A, FIG. 27B and FIG. 27C illustrate the functional expression of BM3 variants, in accordance with embodiments of the invention. […] FIG. 27B illustrates the functional expression of BM3 variants with thebaine N-demethylase activity in yeast.” for “Specifically,”, “8F11” for “8F11 (listed in Table 6)”

[4] = system: L-DOPA production by tyrosine hydroxylase; assay: L-DOPA production with DHFR coexpressed with wild-type RnTyrH in engineered yeast; format: cell-based; settings: YNB lacking tyrosine, 2% dextrose, 96 hours
Source text: Dihydrofolate reductase (DHFR) from R. norvegicus was yeast codon optimized, synthesized, and cloned into a low-copy plasmid under the control of a GPD promoter. DHFR was coexpressed with wild-type RnTyrH (low-copy plasmid with a GPD promoter) in a yeast strain containing the following mutations to central metabolism (as described in U.S. Provisional Patent Application Ser. No. 61/899,496): ARO4^FBR, ΔZWF1, and GPD-TKL1 promoter replacement. In addition, the strain expressed four chromosomally integrated genes from R. norvegicus that generate the cosubstrate tetrahydrobiopterin (pyruvoyl tetrahydropterin synthase, PTPS; sepiapterin reductase, SepR; pterin 4a-carbinolamine dehydratase, PCD; dihydropteridine reductase, QDHPR). The strains expressing DHFR and wild-type RnTyrH were grown in selective defined media (YNB) lacking tyrosine with 2% dextrose for 96 hours, and the production of L-DOPA was measured in the media via LC-MS/MS in MRM mode with the transition 198 m/z to 152 m/z. Expression of DHFR with wild-type RnTyrH increases L-DOPA production by 1.8-fold, as illustrated in FIG. 10. As such, FIG. 10 illustrates coexpression of dihydrofolate reductase (DHFR) that improves L-DOPA production by tyrosine hydroxylase in engineered yeast strains, in accordance with embodiments of the invention.

O=C1O[C@H]([C@@H](O)CO)C(O)=C1O [ascorbic acid]
improvement of L-DOPA production with wild-type RnTyrH ([1]; 96 hours): 1.8 fold | BH4 in the media ([1]; LC-MS/MS): increases BH4 in the media

B1: CODM: codeine O-demethylase, yeast codon-optimized gene integrated into yeast strain W303 (protein, listed as Papaver somniferum)
chain: METPILIKLGNGLSIPSVQELAKLTLAEIPSRYTCTGESPLNNIGASVTDDETVPVIDLQNLLSPEPVVGKLELDKLHSACKEWGFFQLVNHGVDALLMDNIKSEIKGFFNLPMNEKTKYGQQDGDFEGFGQPYIESEDQRLDWTEVFSMLSLPLHLRKPHLFPELPLPFRETLESYLSKMKKLSTVVFEMLEKSLQLVEIKGMTDLFEDGLQTMRMNYYPPCPRPELVLGLTSHSDFSGLTILLQLNEVEGLQIRKEERWISIKPLPDAFIVNVGDILEIMTNGIYRSVEHRAVVNSTKERLSIATFHDSKLESEIGPISSLVTPETPALFKRGRYEDILKENLSRKLDGKSFLDYMRM
oxymorphone generated from oxycodone (3-O-demethylation) [2]: detected by LC-MS

B2: 4H9: BM3 variant (Bacillus megaterium cytochrome P450) listed in Table 6 (protein)
chain: MTIKEMPQPKTFGELKNLPLLNTDKPVQALMKIADELGEIFKFEAPGRVTRYLSSQRLIKEACDESRFDKNLSQALKFARDFAGDGLVTSWTHEKNWKKAHNILLPSFSQQAMKGYHAMMVDIAVQLVQKWERLNADEHIEVSEDMTRLTLDTIGLCGFNYRFNSFYRDQPHPFIISMVRAADEVMNKLQRANPDDPAYDENKRQFQEDIKVMNDLVDKIIADRKARGEQSDDLLTQMLNGKDPETGEPLDDGNIRYQIIAFLIAGHETTSGLLSFALYFLVKNPHVLQKVAEEAARVLVDPVPSYKQVKQLKYVGMVLNEALRLWPTAPAFSLYAKEDTVLGGEYPLEKGDEVMVLIPQLHRDKTVWGDDVEEFRPERFENPSAIPQHAFKPFGNGQRACIGQQFALHEATLVLGMMLKHFDFEDHTNYELDIKETATLKPKGFVVKAKSKKIPLGGIPSPSTEQSAKKVRKKAENAHNTPLLVLYGSNMGTAEGTARDLADIAMSKGFAPQVATLDSHAGNLPREGAVLIVTASYNGHPPDNAKQFVDWLDQASADEVKGVRYSVFGCGDKNWATTYQKVPAFIDETLAAKGAENIADRGEADASDDFEGTYEEWREHMWSDVAAYFNLDIENSEDNKSTLSLQFVDSAADMPLAKMHGAFSTNVVASKELQQPGSARSTRHLEIELPKEASYQEGDHLGVIPRNYEGIVNRVTARFGLDASQQIRLEAEEEKLAHLPLAKTVSVEELLQYVELQDPVTRTQLRAMAAKTVCPPHKVELEALLEKQAYKEQVLAKRLTMLELLEKYPACEMKFSEFIALLPSIRPRYYSISSSPRVDEKQASITVSVVSGEAWSGYGEYKGIASNYLAELQEGDTITCFISTPQSEFTLPKDPETPLIMVGPGTGVAPFRGFVQARKQLKEQGQSLGEAHLYFGCRSPHEDYLYQEELENAQSEGIITLHTAFSRMPNQPKTYVQHVMEQDGKKLIELLDQGAHFYICGDGSQMAPAVEATLMKSYADVHQVSEADARLWLQQLEEKGRYAKDVWAG
northebaine production from thebaine (N-demethylation) [3]: produced northebaine at all tested pH levels above 7.0

B3: 7A1: BM3 variant (Bacillus megaterium cytochrome P450) listed in Table 6 (protein)
chain: B2 chain with L76A, M178A, A438L
northebaine production from thebaine (N-demethylation) [3]: produced northebaine at all tested pH levels above 7.0

B4: 8F11: BM3 variant (Bacillus megaterium cytochrome P450) listed in Table 6 (protein)
chain: B2 chain with A182L, A261T
northebaine production from thebaine (N-demethylation) [3]: produced northebaine at all tested pH levels above 7.0

B5: DHFR: Dihydrofolate reductase from R. norvegicus, yeast codon optimized, expressed from low-copy plasmid (protein, UniProt Q920D2 1-187, looked up)
Dihydrofolate reductase: MVRPLNCIVAVSQNMGIGKNGDLPWPLLRNEFKYFQRMTTTSSVEGKQNLVIMGRKTWFSIPEKNRPLKDRINIVLSRELKEPPQGAHFLAKSLDDALKLIEQPELASKVDMVWVVGGSSVYQEAMNQPGHLRLFVTRIMQEFESDTFFPEIDLEKYKLLPEYPGVLSEIQEEKGIKYKFEVYEKKD
increase of L-DOPA production [4]: 1.8 fold
